Here are results for 32 variants from the RNAGym collection of RNA variant scans (doi:10.7554/elife.80360).

The labels stand for the following.
B1: HDV Ribozyme (parent)
chain: GGCCGGCAUGGUCCCAGCCUCCUCGCUGGCGCCGGCUGGGCAACAUUCCGAGGGGACCGUCCCCUCGGUAAUGGCGAAUGGGACCCA

Variants of B1 are the subject of this data set. In words: self-cleavage, relative activity (ratio to wild type); higher = more cleavage; co-transcriptional.
Consider GGCCGGCAUGGUCCCAGCCUCCUCGCUGGCGCCGGCUGUGCAAGAUUCCGAGGGGACCGUCCCCUCGGUAAUGGCGAAUGGGACCCA [G39U C44G], for which the self-cleavage turned out to be 0.113. GGCCGGCAUGGUCCCAGCCUCCUCGCUGGCGCCGGCUGGGCUAGAUUCCGAGGGGACCGUCCCCUCGGUAAUGGCGAAUGGGACCCA [A42U C44G]: the self-cleavage is 0.464.

CGCCGGCAUGGUCCCAGCCUCCUCGCUGGCGCCGGCUGGGCAACAUUUCGAGGGGACCGUCCCCUCGGUAAUGGCGAAUGGGACCCA [G1C C48U]: the self-cleavage stood at 0.227. Take GGCCGGCAUGGUCCCAGCCUCCUCGCUGGCGCCGGCUGGGCAACAUUCCGACGGGACCGUCCCCUCGGUAAUCGCGAAUGGGACCCA [G52C G73C]: the self-cleavage is 0.339. On to GGCCGGCAUGGUCCCAGCCUCCUCGCUGGCGUCAGCUGGGCAACAUUCCGAGGGGACCGUCCCCUCGGUAAUGGCGAAUGGGACCCA [C32U G34A], for which the self-cleavage was 0.0302. For GUCCGGCAUGGUCCCAGCCUCCUCGCUGGCGCCGGCUGGGAAACAUUCCGAGGGGACCGUCCCCUCGGUAAUGGCGAAUGGGACCCA [G2U C41A], the self-cleavage is 0.0589.

GGCCGGCAUGGUCCCAGCCUCCUCGCUGGGGCCGGCUGGGCAACAUUCCGAGGGGACCGUCCCCUCGGUAAUGGCGAAUGGGAGCCA [C30G C84G]: the self-cleavage came to 0.0755. For GGCCGGCAUGGUCCCAGCCUCCACGCGGGCGCCGGCUGGGCAACAUUCCGAGGGGACCGUCCCCUCGGUAAUGGCGAAUGGGACCCA [U23A U27G], the self-cleavage was found to be 0.762.

With GGCCGGCCUGGUCCCAGCCUCCUCGCUGGCGCCGGCUUGGCAACAUUCCGAGGGGACCGUCCCCUCGGUAAUGGCGAAUGGGACCCA [A8C G38U], the self-cleavage came to 0.0875. GGCCGGCAUGGUCCCAGCCUCCUCGCUGGCGCCGGCUGGGCAACAUUCCGAGGAGACCGGCCCCUCGGUAAUGGCGAAUGGGACCCA [G54A U60G]: the self-cleavage is 1.03.

Take GGCCGGCAUGGUCCCAGCCUCCUCUCUGGCGCCGGCUGGGCAACAUUCCGAGGGGACCGACCCCUCGGUAAUGGCGAAUGGGACCCA [G25U U60A]: the self-cleavage came to 0.237.

For GGCCGGCAUGGUCCCAGCCUCCUCGCUGGCGCCGGCUGGGCAACAUUCCGAGGGGACUGUCCCCUGGGUAAUGGCGAAUGGGACCCA [C58U C66G], the self-cleavage was found to be 0.931.

For GGCCGGCAUGGUCCCAGCCUCCUCGUUGGCGCCGGCUGGGCAACAUUCCGAGGGGACCGUCCCCUCGGUGAUGGCGAAUGGGACCCA [C26U A70G], the self-cleavage turned out to be 0.831. With GGCCGGCAUGGUCCCAGUCUCCUCGCUGGCGCCGGCUGGGCAACAUUCCGAGGUGACCGUCCCCUCGGUAAUGGCGAAUGGGACCCA [C18U G54U] the figure was 0.661; with GGCCGGCAUGGUCCCAGCCUCCUCGCUGGCGCCGGCUGGGCAACAAUCCGAGGGGACCGUCCCCUCGGUAAUGGCGAAUGGGACCAA [U46A C86A], 0.958. With GGCCGGCAUGGUCCCAGCCUCCUCGCUGGCGCCGGCUGGACAACAUUCCGAGGGGACCGUCCCCUCGGUAAUGGCGAAUGAGACCCA [G40A G81A] the figure was 0.475; with GGCCGGCAUGGUCCCAGCCUACUCGCUGGCGCCGGUUGGGCAACAUUCCGAGGGGACCGUCCCCUCGGUAAUGGCGAAUGGGACCCA [C21A C36U], 0.0339.

On to GGCCGGCAUGGUCCCAGCCUCCUCGCUGGCGCCAGCUGGGCAACAUUGCGAGGGGACCGUCCCCUCGGUAAUGGCGAAUGGGACCCA [G34A C48G], for which the self-cleavage was found to be 0.119. With GGCCGGCAUGGUCCCAGCCUCCUCGCUGGCGCCCGCUGGGCAACAUUCCGAGGGGGCCGUCCCCUCGGUAAUGGCGAAUGGGACCCA [G34C A56G] the figure was 0.142.

As for GGCCGGCAUGGUCCCAGCCUCCUCGCUGGCGCCGGCUGGGCAACAUUCCGAUGGGACCGUCCCCUCGGUAAUGGCGUAUGGGACCCA [G52U A77U], the self-cleavage stood at 0.743. With GGCCGGCAUGGUCCCAGCCUCCUCGCUGGCGCUGGCUGGGCAACAUUCCGAGGGGACCGUCCCCUCGGUAAUGGCGAAUGGGACCAA [C33U C86A] the figure was 0.746; with GACCGGCAUGGUCCCAGCAUCCUCGCUGGCGCCGGCUGGGCAACAUUCCGAGGGGACCGUCCCCUCGGUAAUGGCGAAUGGGACCCA [G2A C19A], 0.0292; with UGCCGGCAUGGUCCCAGCCUCCUCGCUGGCGCCGGCUGGGCAACAUUGCGAGGGGACCGUCCCCUCGGUAAUGGCGAAUGGGACCCA [G1U C48G], 0.243. With GGCCGGCAUGGUCCCAGCCUCCUCGCUGGCGCCGACUGGGGAACAUUCCGAGGGGACCGUCCCCUCGGUAAUGGCGAAUGGGACCCA [G35A C41G] the figure was 0.222; with GGCCGGCAUGGUCCCAGCCUCCUCGCUGGCGUCGGCUGGGCAACAUUCCGAGGGGACCGUCCCCUCGGUAAUGGCGCAUGGGACCCA [C32U A77C], 0.162; with GGCCGGCAUGGUCCCAGCCUCCUCGCUGGCGCCGGCUGGGCAACAUUCCGACGGCACCGUCCCCUCGGUAAUGGCGAAUGGGACCCA [G52C G55C], 1.03. The result for GGUCGGCAUGGUCCCAGCCUCCCCGCUGGCGCCGGCUGGGCAACAUUCCGAGGGGACCGUCCCCUCGGUAAUGGCGAAUGGGACCCA [C3U U23C] reads 0.776; that for CGCCGGCAUGGUCCCAGCCUCCUCGCUGGCGCCGGCUGGGCAACAUUCCGAGGGGACCGUCCCCUCGGUAUUGGCGAAUGGGACCCA [G1C A71U], 0; that for GGCCGGCAUGGUCCCAGCCUCCUCGCUGGGGCCGGCUGGGCAACAUUCCGAGGGGACCGUCCCCUCGGUAAUGGCGAAUGGGUCCCA [C30G A83U], 0.16. Consider GGCCGGCAUGGUCCCAGCCUCCUCGCUGGCGCCGUCUGGGCAACAUUCCGAGGGGACCGUCCCCUCGGUAAUGGCGAAUGGGACGCA [G35U C85G], for which the self-cleavage was 0.356. The result for GGCCGGCAUGGUCCCAGCCUCCUCGCUGGCGCCGACUGGGCAACAUUCCGAGGGGACCGUUCCCUCGGUAAUGGCGAAUGGGACCCA [G35A C61U] reads 0.511; that for GGCCUGCAUGGUCCCAGCCUUCUCGCUGGCGCCGGCUGGGCAACAUUCCGAGGGGACCGUCCCCUCGGUAAUGGCGAAUGGGACCCA [G5U C21U], 0.0462.
